Reference: the supplement of paper PMC9732359
± gives the uncertainty stated by the source.

Test: protein stability index of a GFP-peptide fusion (yeast GPS) (PSI 1-4); higher = more stable; sorted into four equal gates, so the index is relative within each strain
Procedure, shortened: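 Tiled yeast protein peptides of 17 residues were each joined downstream of GFP, on plasmids that also express Cherry. The pooled library was maintained in yeast, and mid-log cultures in leucine-free medium were sorted into four equal gates on the GFP/Cherry ratio. Plasmids from every gate were amplified by PCR and sequenced on Illumina, with barcodes linking reads to strains. The protein stability index of a peptide is its gate-number-weighted read frequency summed over the gates.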

KNNLLIPDLSIQNDIYL [RPN12]
protein stability index (doa10∆): 2.93 ± 0.046 | protein stability index (pdr5∆): 3.02 ± 0.038 | protein stability index (san1∆): 2.98 ± 0.035 | protein stability index (ubr1∆): 2.92 ± 0.047

KNPRVTKEYLVQNLRSW [CSN9]
protein stability index (pdr5∆): 3 ± 0.3 | protein stability index (san1∆): 3.16 ± 0.11 | protein stability index (ubr1∆): 3.36 ± 0.091

KNTQSPQTPLVEPVTER [SNU114]
protein stability index (pdr5∆): 2.87 ± 0.15 | protein stability index (san1∆): 2.72 ± 0.097 | protein stability index (ubr1∆): 3.01 ± 0.13

KNYPEYFLKVTFLKYFG [IRR1]
protein stability index (doa10∆): 1.33 ± 0.085 | protein stability index (pdr5∆): 1.54 ± 0.052 | protein stability index (san1∆): 1.22 ± 0.14 | protein stability index (ubr1∆): 1.49 ± 0.046

KPALKVSKEGLYQLVDI [YMR129W/POM152]
protein stability index (doa10∆): 3.18 ± 0.13 | protein stability index (pdr5∆): 3.1 ± 0.12 | protein stability index (san1∆): 3.14 ± 0.074 | protein stability index (ubr1∆): 3.02 ± 0.082

KPGQNNRQQKKRRFDPS [RRP6]
protein stability index (doa10∆): 2.78 ± 0.089 | protein stability index (pdr5∆): 2.99 ± 0.11 | protein stability index (san1∆): 3.21 ± 0.13 | protein stability index (ubr1∆): 2.56 ± 0.08

KPGSKPEKTSTELVDGR [SIR3]
protein stability index (doa10∆): 3.16 ± 0.13 | protein stability index (pdr5∆): 2.86 ± 0.16 | protein stability index (san1∆): 3.26 ± 0.089 | protein stability index (ubr1∆): 3.27 ± 0.14

KPGSTVMLLGTPDANLI [UBP6]
protein stability index (pdr5∆): 3.58 ± 0.24 | protein stability index (ubr1∆): 3.38 ± 0.12

KPLFDFGKTGDQKETKK [YOR098C/NUP1]
protein stability index (doa10∆): 3.3 ± 0.12 | protein stability index (pdr5∆): 3.6 ± 0.19 | protein stability index (san1∆): 2.79 ± 0.22 | protein stability index (ubr1∆): 3.34 ± 0.082

KPMTAYARADTHFLLNI [RRP6]
protein stability index (doa10∆): 2.26 ± 0.05 | protein stability index (pdr5∆): 2.17 ± 0.047 | protein stability index (san1∆): 2.34 ± 0.06 | protein stability index (ubr1∆): 1.87 ± 0.046

KPQLKFKSPIDNSESHP [RRP6]
protein stability index (doa10∆): 2.77 ± 0.083 | protein stability index (pdr5∆): 3.06 ± 0.06 | protein stability index (san1∆): 2.89 ± 0.084 | protein stability index (ubr1∆): 3.12 ± 0.034

KPSFSFPGKPVDVQAPT [YOR098C/NUP1]
protein stability index (doa10∆): 2.72 ± 0.056 | protein stability index (pdr5∆): 2.88 ± 0.094 | protein stability index (san1∆): 3.12 ± 0.055 | protein stability index (ubr1∆): 2.77 ± 0.068

KPTSHKQLQQPKSSPLK [SIR4]
protein stability index (doa10∆): 2.87 ± 0.057 | protein stability index (pdr5∆): 3 ± 0.058 | protein stability index (san1∆): 3.04 ± 0.039 | protein stability index (ubr1∆): 2.95 ± 0.032

KQERSKQERLKENEESL [PRP28]
protein stability index (doa10∆): 3.21 ± 0.2 | protein stability index (pdr5∆): 3.62 ± 0.17 | protein stability index (san1∆): 3.22 ± 0.13 | protein stability index (ubr1∆): 3.31 ± 0.11

KQFDSIFNSNKAKIIPG [SIR4]
protein stability index (doa10∆): 2.32 ± 0.046 | protein stability index (pdr5∆): 2.33 ± 0.047 | protein stability index (san1∆): 2.69 ± 0.064 | protein stability index (ubr1∆): 2.65 ± 0.041

KQQDAEELFTQLFHSMS [UBP6]
protein stability index (doa10∆): 3.25 ± 0.059 | protein stability index (pdr5∆): 3.31 ± 0.088 | protein stability index (san1∆): 3.03 ± 0.088 | protein stability index (ubr1∆): 3.14 ± 0.061

KQTGRDQMVVGWYHSHP [RPN11]
protein stability index (doa10∆): 2.4 ± 0.12 | protein stability index (pdr5∆): 1.97 ± 0.096 | protein stability index (san1∆): 2.4 ± 0.15 | protein stability index (ubr1∆): 1.53 ± 0.096

KQVLLRLNPYAKVFAAE [RPL4A]
protein stability index (doa10∆): 2.12 ± 0.067 | protein stability index (pdr5∆): 2.6 ± 0.11 | protein stability index (ubr1∆): 2.42 ± 0.074

KQVQISHHLKADTIDHD [YGL172W/NUP49]
protein stability index (doa10∆): 2.91 ± 0.067 | protein stability index (pdr5∆): 3.09 ± 0.053 | protein stability index (san1∆): 2.79 ± 0.065 | protein stability index (ubr1∆): 2.92 ± 0.043

KRAEKKAKERLQALKAN [SNF2]
protein stability index (doa10∆): 2.72 ± 0.12 | protein stability index (pdr5∆): 2.6 ± 0.15 | protein stability index (san1∆): 1.73 ± 0.12 | protein stability index (ubr1∆): 1.3 ± 0.048

KREEKAMTIYWDDHTKK [CDC53]
protein stability index (doa10∆): 2.5 ± 0.076 | protein stability index (pdr5∆): 2.2 ± 0.068 | protein stability index (san1∆): 3.45 ± 0.072 | protein stability index (ubr1∆): 2.25 ± 0.051

KRFMNTSQNPQRDAEIS [BRR2]
protein stability index (doa10∆): 3.04 ± 0.076 | protein stability index (pdr5∆): 3.03 ± 0.085 | protein stability index (san1∆): 3.12 ± 0.1 | protein stability index (ubr1∆): 2.95 ± 0.059

KRGVKGVEYRLRLRISR [RPL31A]
protein stability index (doa10∆): 1.64 ± 0.12 | protein stability index (pdr5∆): 1.36 ± 0.12 | protein stability index (ubr1∆): 1.78 ± 0.19

KRHRSSYYDNDLDETTQ [YML031W/NDC1]
protein stability index (doa10∆): 2.8 ± 0.065 | protein stability index (pdr5∆): 2.76 ± 0.071 | protein stability index (san1∆): 2.68 ± 0.053 | protein stability index (ubr1∆): 2.71 ± 0.071

KRINFEKIKDIHNTKLP [POP1]
protein stability index (doa10∆): 2.42 ± 0.17 | protein stability index (pdr5∆): 3.06 ± 0.13 | protein stability index (san1∆): 2.87 ± 0.28 | protein stability index (ubr1∆): 2.54 ± 0.076

KRITQITIEPGVDVEVV [RPS20]
protein stability index (doa10∆): 2.7 ± 0.089 | protein stability index (pdr5∆): 1.78 ± 0.17 | protein stability index (san1∆): 2.81 ± 0.15 | protein stability index (ubr1∆): 2.6 ± 0.09

KRKWSYVLYAKIVVLSR [RRP43]
protein stability index (doa10∆): 1.82 ± 0.06 | protein stability index (pdr5∆): 2.36 ± 0.064 | protein stability index (san1∆): 1.87 ± 0.11 | protein stability index (ubr1∆): 2.21 ± 0.056

KRKYDEITHPPSTTDDE [SWI3]
protein stability index (doa10∆): 3.13 ± 0.11 | protein stability index (pdr5∆): 3.23 ± 0.12 | protein stability index (san1∆): 3.18 ± 0.071 | protein stability index (ubr1∆): 3.29 ± 0.082

KRKYLDIPIDEMTLPTS [SSN2]
protein stability index (doa10∆): 3.1 ± 0.24 | protein stability index (pdr5∆): 2.81 ± 0.15 | protein stability index (san1∆): 2.77 ± 0.19 | protein stability index (ubr1∆): 3.21 ± 0.23

KRQAYAVSEKAGHQTSA [RPL4A]
protein stability index (doa10∆): 2.14 ± 0.12 | protein stability index (pdr5∆): 1.4 ± 0.13 | protein stability index (san1∆): 1.65 ± 0.12 | protein stability index (ubr1∆): 2.34 ± 0.078

KRQELEEASQQQQLQQN [MED2]
protein stability index (doa10∆): 2.75 ± 0.056 | protein stability index (pdr5∆): 2.65 ± 0.083 | protein stability index (san1∆): 2.48 ± 0.059 | protein stability index (ubr1∆): 2.63 ± 0.061

KRTRLESLKNLNESRSQ [SMC3]
protein stability index (doa10∆): 2.53 ± 0.092 | protein stability index (pdr5∆): 2.4 ± 0.075 | protein stability index (san1∆): 2.61 ± 0.071 | protein stability index (ubr1∆): 2.82 ± 0.13

KRVVVPQALRVLRLKPG [RPL16A]
protein stability index (doa10∆): 3.05 ± 0.087 | protein stability index (pdr5∆): 3.11 ± 0.1 | protein stability index (san1∆): 3.15 ± 0.056 | protein stability index (ubr1∆): 2.09 ± 0.12

KSAEGNNIDQSLILKES [YAR002W/NUP60]
protein stability index (doa10∆): 2.82 ± 0.095 | protein stability index (pdr5∆): 2.86 ± 0.063 | protein stability index (san1∆): 2.61 ± 0.096 | protein stability index (ubr1∆): 3 ± 0.078

KSAVSHAPAYHRSKKDQ [IRR1]
protein stability index (doa10∆): 3.13 ± 0.16 | protein stability index (pdr5∆): 2.79 ± 0.11 | protein stability index (ubr1∆): 3.1 ± 0.069

KSDEGGSYLCTSSTPSP [YOR098C/NUP1]
protein stability index (doa10∆): 3.16 ± 0.065 | protein stability index (pdr5∆): 3.09 ± 0.079 | protein stability index (san1∆): 2.7 ± 0.067 | protein stability index (ubr1∆): 3.07 ± 0.06

KSGTSHDAIFSIYKYIH [SNF12]
protein stability index (doa10∆): 2.51 ± 0.059 | protein stability index (pdr5∆): 2.66 ± 0.054 | protein stability index (san1∆): 2.34 ± 0.068 | protein stability index (ubr1∆): 2.2 ± 0.046

KSHVLLATPVQFELLSR [BRR2]
protein stability index (doa10∆): 2.31 ± 0.057 | protein stability index (pdr5∆): 1.58 ± 0.052 | protein stability index (san1∆): 2.02 ± 0.066 | protein stability index (ubr1∆): 2.08 ± 0.049

KSIMDGIHDGHIKKLLH [FAS1]
protein stability index (doa10∆): 1.54 ± 0.035 | protein stability index (pdr5∆): 1.48 ± 0.037 | protein stability index (san1∆): 1.37 ± 0.075 | protein stability index (ubr1∆): 1.38 ± 0.024

KSIQDIVGLATLIVNTD [SRP21]
protein stability index (doa10∆): 2.85 ± 0.054 | protein stability index (pdr5∆): 3.05 ± 0.05 | protein stability index (san1∆): 2.93 ± 0.039 | protein stability index (ubr1∆): 2.97 ± 0.037

KSIRKDTVEEKKEEKLN [SIR4]
protein stability index (doa10∆): 2.96 ± 0.088 | protein stability index (pdr5∆): 3.2 ± 0.12 | protein stability index (san1∆): 3.17 ± 0.065 | protein stability index (ubr1∆): 2.76 ± 0.091

KSLEDLSCQYDNTVRTS [RPO31]
protein stability index (doa10∆): 1.3 ± 0.19 | protein stability index (pdr5∆): 1.31 ± 0.14

KSMELFYDIRSLLERHI [YJL039C/NUP192]
protein stability index (doa10∆): 2.84 ± 0.044 | protein stability index (pdr5∆): 2.99 ± 0.038 | protein stability index (san1∆): 2.91 ± 0.04 | protein stability index (ubr1∆): 3.07 ± 0.046

KSPSLTAQKYPIYTGDG [YMR153W/NUP53]
protein stability index (doa10∆): 2.33 ± 0.055 | protein stability index (pdr5∆): 2.19 ± 0.051 | protein stability index (san1∆): 2.08 ± 0.069 | protein stability index (ubr1∆): 2.01 ± 0.036

KSRMINFLDAPGHVNFM [SNU114]
protein stability index (pdr5∆): 2.65 ± 0.17 | protein stability index (san1∆): 3.06 ± 0.12 | protein stability index (ubr1∆): 3.57 ± 0.28

KSSDSNDSNPSFSFSIP [YLR335W/NUP2]
protein stability index (doa10∆): 2.62 ± 0.046 | protein stability index (pdr5∆): 2.53 ± 0.048 | protein stability index (san1∆): 2.31 ± 0.058 | protein stability index (ubr1∆): 2.81 ± 0.034

KTCQWYSEHLKPYDINV [DIS3]
protein stability index (doa10∆): 2.78 ± 0.28 | protein stability index (pdr5∆): 2.95 ± 0.14 | protein stability index (san1∆): 2.74 ± 0.094 | protein stability index (ubr1∆): 2.84 ± 0.072

KTIVTGGNGPEDFQQHE [RPO26]
protein stability index (doa10∆): 3.29 ± 0.069 | protein stability index (pdr5∆): 3.33 ± 0.055 | protein stability index (san1∆): 3.32 ± 0.056 | protein stability index (ubr1∆): 3.31 ± 0.039

KTKILEVAIRDVNLDVR [IRR1]
protein stability index (doa10∆): 2.58 ± 0.055 | protein stability index (pdr5∆): 2.12 ± 0.065 | protein stability index (san1∆): 2.38 ± 0.057 | protein stability index (ubr1∆): 2.48 ± 0.052

KTLIGLQGIVIWDSQKF [POP4]
protein stability index (doa10∆): 1.7 ± 0.061 | protein stability index (pdr5∆): 1.91 ± 0.051 | protein stability index (san1∆): 2.17 ± 0.071 | protein stability index (ubr1∆): 2.38 ± 0.044

KTPNRSSTPKFTKKPVT [SIR4]
protein stability index (doa10∆): 2.77 ± 0.082 | protein stability index (pdr5∆): 2.81 ± 0.082 | protein stability index (san1∆): 2.91 ± 0.056 | protein stability index (ubr1∆): 2.94 ± 0.054

KTPVFTTGGDYILSLVS [YMR129W/POM152]
protein stability index (doa10∆): 2.06 ± 0.056 | protein stability index (pdr5∆): 2.13 ± 0.058 | protein stability index (san1∆): 1.74 ± 0.064 | protein stability index (ubr1∆): 1.87 ± 0.044
